Laboratory results from US20110201105A1, “LACTATION-ASSOCIATED POLYPEPTIDES” (Dairy Australia Limited, priority 2007, published 2011).

B1: LAM 32a: splice variant of tammar wallaby LAM 32, SEQ ID NO 215 (protein)
chain: MRDSTMQVLLLVLGLLSLMTSLACAQDQPYQDVLNRFIQEYNTKSESESLFRLSVLNLPPEESNDPAVPLLKFTIRETVCPKTEHRNADECDFKKNGLVKQCIGTIDLDSPNPSVDISCDRPAKVKRGLWESLKRKATKLGDDIRNTLRNFKIKFPVPRQG
B2: LAM 32b: splice variant of tammar wallaby LAM 32, SEQ ID NO 207 (protein)
chain: MRGLTMQVLLLVLGLLSLMTPLGYAQDQPYQDVLNRFIQEYNTKSESESLFRLSVLNLPSQESNDPTAPQLLKFTIRETVCSKSEHRNPEECDFKKNGVRVSWAGKGF
B3: LAM 32.8: bovine cathelicidin variant, SEQ ID NO 171 (protein)
chain: METPRASLSLGRWSLWLLLLGLALPSAQRPGPQLQGGRASCLMESASMKKSSEANLYRLLELDPPPKEDDENPNIPKPVSFRVKETVCPRTSQQSPEQCDFKENGLLKYCVGTVSRWDQVGSNFDITCAAPQSVGGLQAWVGRYYVLGKSMAQLLFQ
B4: LAM 32.9: bovine cathelicidin variant, SEQ ID NO 173 (protein)
chain: METPRASLSLGRCSLWLLLLGLVLPSASAQALSYREAVLRAVDQFNERSSEANLYRLLELDPTPNDVSYEGIWAGRPASWGAGRQIRGRRMSPNPVSPTLTHDQDLDPGTRKPVSFRVKETDCPRTSQQPLEQCDFKENGVSLGAGEKNGRCFPGIGQRAWGRLPIPGRRPGGYGHRGFSLTLNLPFQLVKTVCGTARHQHN
B5: LAM 32.11: bovine cathelicidin variant, SEQ ID NO 177 (protein)
chain: METQRASLSLGRWSLWLLLLGLVLPSASAQALSYREAMLRAVDQLNERSSEAHLYRLLGASTRPPSGHELGRGTGDEPFSCPALATLLPLHSGCTSCQEGTFPSRWVPTSSRKAVSRDLGHLPAPGYPCLSISAVGIGTLHTWLRFPGLLGSSRDGGVTGSVR
B6: LAM 32.10: bovine cathelicidin variant, SEQ ID NO 175 (protein)
chain: METQRASLSLGRWSLWLLLLGLVLPSASAQALSYREAMLRAVDQLNERSSEAHLYRLLELDPPPDMSWGGDRGRAFLLPALATLLPLHSGCTSCQEGTFPSRWVPTSSRKASQTWVISQHQASCLSISAVGIGTLHTWLKFPGLLGAPGMGGS

What was measured:
[1] = tested on: AGS cells; test: Cell growth using bovine cathelicidin variants in AGS cells (SRB assay); type: cell-based, human; set-up: unit not given here; details: 72 hours; for cell growth Replicate 3: -ve control 0.233; for cell growth Replicate 1: -ve control 0.247; for cell growth Replicate 4: -ve control 0.265; for cell growth Replicate 2: -ve control 0.316; for cell growth Mean: -ve control mean 0.265
Protocol: A cellular growth assay was performed using seven bovine cathelicidin (CATHL) variants, namely CATHL1, 4, and 6 which are known in the art (the relevant sequences can be obtained using the following hyperlink: http://www.ncbi.nlm.nih.gov/entrez/query.fcqi?db=unigene&cmd=search&term=cathelicidin) and bovine Cathelicidins 8, 9, 10 and 11 (being LAMs 32.8, 32.9, 32.10 and 32.11, respectively) as identified herein and which are derived from LAM 32. The bovine cathelicidin associated LAMs were derived by sequence comparison to the tammar polynucleotide sequence of LAM 32.
The growth rate of AGS cells was assessed in the presence of the cathelicidins. Equal numbers of human gastric epithelial AGS cells were cultured in either control media or media conditioned with bovine cathelicidins for 72 hours in a 1:10 dilution of serum and antibiotic-free Optimem. Cells were then fixed and a Sulforhodamine B (SRB) colorimetric assay was undertaken as described in Journal of Immunological Methods 208: 151-158, K. T. Papazisis, G. D. Geromichalos, K. A. Dimitriadis, A. H. Kortsaris (1997), ‘Optimization of the sulforhodamine B colorimetric assay’.
Briefly, cells were fixed directly by incubation with 10% trichloroacetic acid for 1 hour at 4° C., washed with water, air-dried overnight and then stained with 0.4% w/v sulforhodamine B, 1% acetic acid solution for 10 minutes at room temperature. Cell were again washed with 1% acetic acid and air-dried, then counted in triplicate.

[2] = tested on: chicks; test: Chick growth assay (in ovo injection, weight at hatching); type: in vivo; details: for Chick weight: bovine polypeptides in conditioned media, 1 ml in ovo on day 16 of incubation, weighed on day of hatching, Saline 51.0; for death / overall condition of chick: in ovo injection on day 16 of incubation
Protocol: FIG. 5. Chick growth assay by measuring weight. 10 LAMs (being bovine homologues having homology to specific Tammar ESTs), 3 known bovine cathelicidins, and four bovine cathelicidin variants were tested. Conditioned media containing a LAM polypeptides or bovine cathelicidins or variants thereof was diluted in a total of 1 ml of normal saline. Eggs on day 16 of incubation were injected with 1 ml of the media containing the into the broad end of the egg. Chicks were weighed on day of hatching. The overall condition of the chick was assessed including the possible presence of stumpy legs and/or loss of down feathers.
Conditioned media containing LAM polypeptides or bovine cathelicidins or variants thereof were diluted in a total of 1 ml of normal saline. Eggs on day 16 of incubation were injected in ovo with 1 ml of LAM polypeptides or bovine cathelicidins or variants thereof into the broad end of the egg. Chicks were weighed on day of hatching. Controls included saline only, or saline and 10 mg/ml of a peptide as a random peptide control.
As set out in Table 23, the left column indicates the polypeptide used in the assay while the right column contains chick weight in grams as a measurement of chick growth. Bolded numbers represent a chick(s) larger than the controls and more than 2 standard deviations from the mean. In addition, bolded numbers represent chicks that have been killed. The mean represents the weight of all the chicks tested within this experiment.

[3] = tested on: HC11 cells; test: Cell growth with cathelicidins in HC11 cells; type: cell-based, mouse; set-up: cell growth Rep. 1 / cell growth Rep. 2 / cell growth Rep. 3 / cell growth Rep. 4 / cell growth Mean: unit not given here; details: 72 hours; for cell growth Rep. 1: 1:10 dilution conditioned media, -ve control 0.727; for cell growth Rep. 2: -ve control 0.76; for cell growth Rep. 3: -ve control 0.786; for cell growth Rep. 4: -ve control 0.808; for cell growth Mean: -ve control mean 0.77025; for cell growth versus control (significance): P<0.05 t-test
Protocol: FIG. 2. Cellular growth assay with HC11 cells. Mouse mammary epithelial cells, HC11 cells, were grown in media conditioned with: mock transfection (control), LAM32, LAM32a or LAM32b for 72 hours. Samples were performed in triplicate and the cells from each triplicate counted in triplicate. […] LAM 32 is represented as set forth in SEQ ID NO: 188, and two splice variants thereof, designated LAM32a and 32b as set forth in SEQ ID NO: 215 and 207 respectively.
As shown in FIG. 2 equal numbers of mouse mammary HC11 cells were grown in the presence of either a negative control or tammar wallaby cathelicidin-associated polypeptide, namely LAM 32 (SEQ ID NO: 188), LAM 32a (SEQ ID NO: 215) or LAM 32b (SEQ ID NO: 207) in order to determine the effect of these LAMs on cellular growth.
(§1) HC11 cells were initially plated at 50 percent confluency and cultured for 72 hours in a 1:10 dilution of serum and antibiotic free Optimem and media conditioned with cathelicidin associated polypeptides. The medium was removed and then washed gently for 2 minutes with Mg^2+- and Ca^2+-free phosphate buffered saline (PBS), 0.05% Trypsin and 1:5000 Versene to disrupt cell aggregates. Cells were collected by scraping and washed twice by resuspension in complete medium followed by centrifugation. The cells were again resuspended and counted in triplicate using a Luber haemocytometer.
(§2) The cells were counted in triplicate using a Luber haemocytometer. The negative control was media alone (i.e. conditioned media […] insertless vector). The samples were deemed statistically significant using a t-test comparing the control with the sample if the values of cell growth were 2 standard deviations higher than the mean of the negative control.

[4] = tested on: mouse ES cells; test: Cell growth with cathelicidins in mouse ES cells; type: cell-based; set-up: cell growth Rep. 1 / cell growth Rep. 2 / cell growth Rep. 3 / cell growth Mean: unit not given here; details: 24 hours; for cell growth Rep. 1: 1:10 dilution conditioned media, -ve control 0.34; for cell growth Rep. 3: -ve control 0.352; for cell growth Rep. 2: -ve control 0.474; for cell growth Mean: -ve control mean 0.388666667
Protocol: as §1, with “Mouse ES” for “HC11”, “were” for “were initially”, “24” for “72”, “saline” for “saline (PBS),”
as §2

Molecule	cell growth Replicate 3 [1]	cell growth Replicate 1 [1]	cell growth Replicate 4 [1]	cell growth Replicate 2 [1]	cell growth Mean [1]	Chick weight [2]	cell growth Rep. 1 [3]	cell growth Rep. 2 [3]	cell growth Rep. 3 [3]	cell growth Rep. 4 [3]	cell growth Mean [3]	cell growth versus control (significance) [3]	cell growth versus control (significance) [4]	cell growth Rep. 1 [4]	cell growth Rep. 3 [4]	cell growth Rep. 2 [4]	cell growth Mean [4]	death / overall condition of chick [2]	chick size versus controls ([2]; body weight relative to mean/median of all chicks tested)
CATHL4: bovine cathelicidin 4, known in the art (ILPWKWPWWPWRR; UniProt P33046 131-143, looked up) [reference compound]	0.409	0.626	0.500	0.465	0.500	49.7 grams													
B1							0.958	0.977	1.008	1.102	1.011	significantly more cells	significantly different growth from the control	0.575	0.517	0.605	0.5657		
B2							0.89	0.841	0.862	0.832	0.8562	significantly more cells	significantly different growth from the control	0.676	0.693	0.677	0.682		
B3	0.261	0.441	0.361	0.382	0.361	Killed												caused death of chicks	
B4	0.220	0.246	0.229	0.220	0.229	46.5 grams												caused stumpy legs and loss of down	
B5	0.563	0.365	0.431	0.366	0.431	59^ grams													produced a chick larger than the controls
B6	0.534	0.602	0.514	0.405	0.514	53.8 grams													
